# The supplement of paper PMC12764529
# ± gives the half width of the 95% confidence interval.
# Experiment: folding stability dG unfold from trypsin proteolysis; higher = more stable
# In short: (§1)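 Only designs with AlphaFold2 dimer inter-PAE above 15 were retained; each was a mini-protein under 80 residues with no cysteine, in a PA-tagged cDNA display construct. After digestion with trypsin and chymotrypsin and sequencing, K50 was inferred by Bayesian fitting of counts, and unfolding free energy was derived per protease or combined against a sequence-predicted unfolded-state K50 and a shared folded-state K50.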
row,Sequence,folding stability dG unfold
1,SAGGEKVKRVLVRDKKTKEWREVEVKEAKVEPPPVITIKIELSEEEAKKLAELLRKLFPDAKVTVVKSAGGS [r8_437_TrROS_Hall],4.15 ± 0.35 kcal/mol
2,SAMKVTIEPLEDGSTVITLDDGTEITFSAPGSGAPILAKVTPLPNTGVVRVDIYHPEGGKLLAPLVVPLSAG [r14_975_TrMRF],0.657 ± 0.034 kcal/mol
3,SAGGSAGGSAGGVKPGDFVLIKLTLTEKYYDPETGELIEEKEVELTILIPKGTSLEELKLSAGGSAGGSAGG [r7_591_TrROS_Hall],2.3 ± 0.17 kcal/mol
4,SAGGSAGGSMELDEDGRLIVRIKVRDKETKEWKEIEIELPGLTEEEIRKLAEELGAEEIEILPSAGGSAGGS [r12_792_TrROS_Hall],2.35 ± 0.061 kcal/mol
5,SAGMEVEILGAEVDPETGVVKVVAVGRDPVTGVLVVDEITIKGDTVEIRREVYFPNTGKKAETTATIPLSAG [r5_150_TrMRF],1.66 ± 0.13 kcal/mol
6,SAGGSAGGSAGGKKVYKVPSLEEALELAKKNKGKTVEIEVDGKKYKFNKNGKIVEIEPVKSAGGSAGGSAGG [r7_532_TrROS_Hall],1.36 ± 0.084 kcal/mol
7,SAGGSAGGSAGGSAPPKVEIEVTVLVKDEDGRLYVFKAKATFDLETNELTVEVEVYELPSAGGSAGGSAGGS [r4_445_TrROS_Hall],3.22 ± 0.39 kcal/mol
8,SAETKAEVFRFGDVLVVVTEERVTTPDGSERPVYTVTLLVYDPSTGKWTPFSRPFSSKEDAAKALSSGVSAG [r14_500_TrMRF],1.52 ± 0.07 kcal/mol
9,SAGGDPLVLEFDGVTVVYDPKTKTLVVFAPSSEVERLVKALGPKFEPLEIFELEDGSVVMLVRIKPESAGGS [r8_415_TrMRF],3.53 ± 0.12 kcal/mol
10,SAGGSAMKITLKPDGTLEIELPDGVKITITRNANGEVTITITYPDGETKTFPAGMTLEQVLAELLASAGGSA [r15_371_TrROS_Hall],3.56 ± 0.072 kcal/mol
11,SAGGKKYKVIKEIEITLENGKKIKIKLIEYNEKTNEYILEITYPDGKKITITVPKGMSIEEALKKLLSSAGG [r13_470_TrROS_Hall],2.37 ± 0.16 kcal/mol
12,SAGGSAGGSIPEILKKIGISPEVVTEVEVTPVEKLPDSLVVKVTYTYKLPNGTTETKTVTVPIGSAGGSAGG [r6_776_JUSTAS],2.14 ± 0.091 kcal/mol
13,SAGGETVTTESYQPLPTGPGLSFKNVVTTEEDVNNPGVKYTTTEVTAELVNPEGDESTTTTSTVTAASAGGS [r16_217_JUSTAS],0.0281 ± 0.035 kcal/mol
14,SHTTTEPATGVTVEVVPSPDGTHVVTVKKPGGEVVKTVTVPSGPRPPGSTTPLTVALTDLPPDVETSVDLSS [r1_263_JUSTAS],0.416 ± 0.067 kcal/mol
15,SAGGSAGGSAGGGSMTTTTLTFTVPPDVTPEEVRAALEAAGYGDVAVTREGNTWTVTVTSAGGSAGGSAGGS [r10_868_JUSTAS],1.56 ± 0.049 kcal/mol
16,SAGGSMKTITDPGNLSEEEIKKILSKFPPNTTVTIEFPDATHTVTLNPDKIEISRDPSYPNFRITITISSAG [r5_373_JUSTAS],1.31 ± 0.029 kcal/mol

row,Sequence,folding stability dG unfold
1,SAGGSAGGLGWGSFKLPFEFWDPANGMPMRNSINIMVIVIPPPPPKVEVEEDPDNGKKKVTYDDSAGGSAGG [r6_926_TrROS],2.67 ± 0.1 kcal/mol
2,SAGGSAGGSPIEEIVAELKVPPGTTVKFPDGSTITLNSREDLLKLAKEGYPPEKLKDITVEAVSAGGSAGGS [r12_430_JUSTAS],0.308 ± 0.071 kcal/mol
3,SAGGMLLKLPLSSVEIPPDASEEEIEEAKRKLAKPKVVKVTEEVLIEENGIVKKVKVTKYVSLSVEESAGGS [r16_387_JUSTAS],0.845 ± 0.082 kcal/mol
4,SAGGSAMKEIEINGYKVRIVKIDEKTGKITIYLYPNASEEMKEKVAELLKELGFEIEVEEVSPEELSAGGSA [r15_570_TrROS_Hall],3.4 ± 0.28 kcal/mol
5,SAGGSAGGSAMKLEVFPVPDGQIAVFEDADGNIRVIGVPEPNLSISDIAKIALDLGADSVELSAGGSAGGSA [r18_83_TrMRF],0.451 ± 0.053 kcal/mol
6,SAGGMIRITTEDGEELSEEELAELEEAIRKGDLDEAVKKIEELLRERFGKEIKIKVEVFFPPPPPPESAGGS [r8_48_TrROS_Hall],3.79 ± 0.26 kcal/mol
7,SAGGGPVTEETYTIKRPDGTELVVTRYYFPGTGETVVRIYPPSTKTPLSTVPLSEASPELLAEIARRSAGGS [r8_32_JUSTAS],1.2 ± 0.027 kcal/mol
8,SAGGSAGGSMGVTVTSEEDPEVRRVRETIETPSGSVVERDMVLTRPPDGPLLREALSEKVFRPSAGGSAGGS [r12_758_JUSTAS],-0.324 ± 0.15 kcal/mol
9,SAGGPKLFVEEDPVEDGVVVVVETNADPVALLKALEKLFGRPVKDVRFERLPDGRLIAVARIPKDALSAGGS [r16_605_TrMRF],2.05 ± 0.043 kcal/mol
10,SAGGSAGGSAGGLPDREILEVRVLNPEREETGLRVRVEVVLPDGPVTIELPAEEVKELASAGGSAGGSAGGS [r10_771_TrMRF],-0.0431 ± 0.068 kcal/mol
11,SAGGSMTTTTVTVTDPAGNTTTYTFPSSVPLEEIVEAVSKALGRPVTVLSVTTDPSGTTTVTLAVPGSAGGS [r8_285_JUSTAS],4.33 ± 0.3 kcal/mol
12,SAGMKYTFKILVKADSPEEAIETAKKLVEKWLKENFPELPEGVKIKEIKVEPLPDDYYLVTITVEFDPESAG [r5_320_TrMRF],4.2 ± 0.19 kcal/mol
13,SAGGSAGGSEEILKALGVEPGDEVEIEMTPEELEELLALPGVEPVRVEERPDGRLRVRIRILPSAGGSAGGS [r12_750_TrROS_Hall],3.14 ± 0.11 kcal/mol
14,SMKIEFLDVKEDGTIVIRLTLLRPDGKPPTKEEAAERAKEIAEILKPYFPDAEFTIEFDPESGEATIVIDSA [r9_485_TrMRF],4.66 ± 0.57 kcal/mol
15,SAGGSDSLVTLERVEVTELEEFEEDDRPFLVKRTYTIEKVVTTDPKTGKVTTETTVTSKEEVIPPELNSAGG [r13_810_JUSTAS],0.807 ± 0.031 kcal/mol

# Experiment: folding stability dG unfold from chymotrypsin proteolysis; higher = more stable
# In short: as §1
row,Sequence,folding stability dG unfold
1,SAGGEKVKRVLVRDKKTKEWREVEVKEAKVEPPPVITIKIELSEEEAKKLAELLRKLFPDAKVTVVKSAGGS [r8_437_TrROS_Hall],3.82 ± 0.24 kcal/mol
2,SAMKVTIEPLEDGSTVITLDDGTEITFSAPGSGAPILAKVTPLPNTGVVRVDIYHPEGGKLLAPLVVPLSAG [r14_975_TrMRF],0.579 ± 0.094 kcal/mol
3,SAGGSAGGSAGGVKPGDFVLIKLTLTEKYYDPETGELIEEKEVELTILIPKGTSLEELKLSAGGSAGGSAGG [r7_591_TrROS_Hall],1.96 ± 0.089 kcal/mol
4,SAGGSAGGSMELDEDGRLIVRIKVRDKETKEWKEIEIELPGLTEEEIRKLAEELGAEEIEILPSAGGSAGGS [r12_792_TrROS_Hall],2.39 ± 0.083 kcal/mol
5,SAGMEVEILGAEVDPETGVVKVVAVGRDPVTGVLVVDEITIKGDTVEIRREVYFPNTGKKAETTATIPLSAG [r5_150_TrMRF],1.43 ± 0.071 kcal/mol
6,SAGGSAGGSAGGKKVYKVPSLEEALELAKKNKGKTVEIEVDGKKYKFNKNGKIVEIEPVKSAGGSAGGSAGG [r7_532_TrROS_Hall],2.38 ± 0.075 kcal/mol
7,SAGGSAGGSAGGSAPPKVEIEVTVLVKDEDGRLYVFKAKATFDLETNELTVEVEVYELPSAGGSAGGSAGGS [r4_445_TrROS_Hall],4.79 ± 0.13 kcal/mol
8,SAETKAEVFRFGDVLVVVTEERVTTPDGSERPVYTVTLLVYDPSTGKWTPFSRPFSSKEDAAKALSSGVSAG [r14_500_TrMRF],2.22 ± 0.083 kcal/mol
9,SAGGDPLVLEFDGVTVVYDPKTKTLVVFAPSSEVERLVKALGPKFEPLEIFELEDGSVVMLVRIKPESAGGS [r8_415_TrMRF],4.53 ± 0.1 kcal/mol
10,SAGGSAMKITLKPDGTLEIELPDGVKITITRNANGEVTITITYPDGETKTFPAGMTLEQVLAELLASAGGSA [r15_371_TrROS_Hall],3.3 ± 0.053 kcal/mol
11,SAGGKKYKVIKEIEITLENGKKIKIKLIEYNEKTNEYILEITYPDGKKITITVPKGMSIEEALKKLLSSAGG [r13_470_TrROS_Hall],2.52 ± 0.051 kcal/mol
12,SAGGSAGGSIPEILKKIGISPEVVTEVEVTPVEKLPDSLVVKVTYTYKLPNGTTETKTVTVPIGSAGGSAGG [r6_776_JUSTAS],2.76 ± 0.034 kcal/mol
13,SAGGETVTTESYQPLPTGPGLSFKNVVTTEEDVNNPGVKYTTTEVTAELVNPEGDESTTTTSTVTAASAGGS [r16_217_JUSTAS],0.00547 ± 0.22 kcal/mol
14,SHTTTEPATGVTVEVVPSPDGTHVVTVKKPGGEVVKTVTVPSGPRPPGSTTPLTVALTDLPPDVETSVDLSS [r1_263_JUSTAS],0.141 ± 0.077 kcal/mol
15,SAGGSAGGSAGGGSMTTTTLTFTVPPDVTPEEVRAALEAAGYGDVAVTREGNTWTVTVTSAGGSAGGSAGGS [r10_868_JUSTAS],2.6 ± 0.039 kcal/mol
